This is an account of results in patent publication US6649742.

For the assay, the target named is T1, human CD5 cell differentiation marker (human, UniProt P06127 25-495).
T1 sequence: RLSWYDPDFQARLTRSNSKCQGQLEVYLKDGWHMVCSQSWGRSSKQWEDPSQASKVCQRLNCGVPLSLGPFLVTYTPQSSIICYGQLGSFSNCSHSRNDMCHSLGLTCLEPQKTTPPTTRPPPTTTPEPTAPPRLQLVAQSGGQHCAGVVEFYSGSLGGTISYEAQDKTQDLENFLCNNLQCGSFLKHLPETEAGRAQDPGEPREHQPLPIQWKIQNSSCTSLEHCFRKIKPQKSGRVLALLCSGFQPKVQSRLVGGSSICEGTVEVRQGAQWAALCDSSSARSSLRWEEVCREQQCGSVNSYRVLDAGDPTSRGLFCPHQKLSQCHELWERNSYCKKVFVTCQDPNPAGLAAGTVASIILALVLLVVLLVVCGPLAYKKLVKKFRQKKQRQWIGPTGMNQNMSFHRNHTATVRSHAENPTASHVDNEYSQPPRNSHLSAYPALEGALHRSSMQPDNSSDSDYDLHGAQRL
Put plainly: cell-based or functional assay.

B1: he3Fab-rGelA50(C44) (other)
light: DIQMTQSPSSLSASVGDRVTITCRASQDINSYLSWFQQKPGKAPKTLIYRANRLESGVPSRFSGSGSGTDYTLTISSLQYEDFGIYYCQQYDESPWTFGGGTKLEIK
heavy: EIQLVQSGGGLVKPGGSVRISCAASGYTFTNYGMNWVRQAPGKGLEWMGWINTHTGEPTYADSFKGRFTFSLDDSKNTAYLQINSLRAEDTAVYFCTRRGYDWYFDVWGQGTTVTVSS
chain: GLDTVSFSTKGATYITYVNFLNELRVKLKPEGNSHGIPLLRKKCDDPGKAFVLVALSNDNGQLAEIAIDVTSVYVVGYQVRNRSYFFKDAPDAAYEGLFKNTIKTRLHFGGSYPSLEGEKAYRETTDLGIEPLRIGIKKLDENAIDNYKPTEIASSLLVVIQMVSEAARFTFIENQIRNNFQQRIRPANNTISLENKWGKLSFQIRTSGANGMFSEAVELERANGKKYYVTAVDQVKPKIALLKFVDKDPK
modifications: Cys 44 disulfide-linked to the M2IT linker on the Fab; lysine residues of the Fab derivatized with 5-methyl-2-iminothiolane (M2IT), 1 M2IT per Fab
As for B1, the “IC50 (pMT), CEM Cells; whole cell cytotoxicity (inhibition of protein synthesis)” value worked out at 173 pMT and the “IC50 (pMT), HSB2 Cells; whole cell cytotoxicity (inhibition of protein synthesis)” value was determined as 165 pMT.
